Laboratory results taken from US20110091971A1, “Differentiation of Pluripotent Stem Cells” (priority 2008, published 2011).

Experiments:
Assay type in all cases: cell-based
[1] = tested on: H1 or H9 human embryonic stem cells; test: Activin A bioassay: differentiation of human embryonic stem cells to definitive endoderm, cell number and SOX17 intensity by high content analysis (96-well, four days); conditions: for Sox 17 Intensity % of control: control = R&D Sys Activin A 100 ng/ml on same plate;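 for Cell Number average: Raw total cell count per well from high content imaging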;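 for Sox 17 Intensity average: total fluorescence of the cell multiplied by cell area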
Outline: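 Read-out was cell count and integrated SOX17 immunofluorescence by high-content imaging, with each well divided by the mean of the 100 ng/ml activin A control. Over the four-day culture, test samples were given in DMEM:F12 with 0.5% FCS plus 20 ng/ml Wnt3a for the first two days and in 2% FCS alone for the last two. Cells were H1 or H9 hESC clusters grown on Matrigel.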

[2] = tested on: Human Embryonic Stem Cells (H1 hESC line); test: High content analysis of cell number and SOX17 expression at end of first step of differentiation (Example 12); conditions: 100 ng/ml peptide, FIG. 23C-F
Description: (§1) Preparation of Cells for Assay: Stock Cultures of Human Embryonic Stem Cells (H1 hESC line) were maintained in an undifferentiated, pluripotent state on growth factor-reduced MATRIGEL™-coated dishes in MEF conditioned medium supplemented with bFGF (PeproTech; Cat #100-18B) with passage on average every, four days. Passage was performed by exposing cell cultures to a solution of 1 mg/ml collagenase (Invitrogen, Cat #17104-019) for five to seven minutes at 37° C. followed by rinsing the monolayer with MEF conditioned medium and gentle scraping to recover cell clusters. Clusters were centrifuged at low speed to collect a cell pellet and remove residual collagenase. Cell clusters were split at a 1:3 or 1:4 ratio for routine maintenance culture or a 1:1 ratio for immediate assay. All human ES cell lines were maintained at passage numbers less than 50 and routinely evaluated for normal karyotypic phenotype and for absence of mycoplasma contamination.
(§2) Cell clusters were evenly resuspended in MEF conditioned medium supplemented with 8 ng/ml bFGF and seeded onto growth factor-reduced MATRIGEL™-coated 24-well, black wall culture plates (Arctic White; Cat #AWLS-303012) in volumes of 0.5 ml/well. Daily feeding was conducted by aspirating spent culture medium from each well and replacing with an equal volume of fresh medium. Plates were maintained at 37° C., 5% CO2 throughout the duration of assay.
(§3) Assay: The assay was initiated by aspirating culture medium from each well and adding back an aliquot (0.5 ml) of test medium. Test conditions for the first step of differentiation were conducted over a three-day period, feeding daily by aspirating and replacing the medium from each well with fresh test medium. Concentrated supernatants of the ACTN peptides were evaluated for protein concentration using a DuoSet ELISA kit for human activin A (R&D Systems; Cat #DY338), as previously described in Example 11. On the first day of assay, ACTN peptides were diluted to a final concentration of 100 ng/ml in RPMI 1640 medium (Invitrogen; Cat #: 22400) with 2% Albumin Bovine Fraction V, Fatty Acid Free (FAF BSA) (MP Biomedicals, Inc; Cat #152401), 8 ng/ml bFGF, and 20 ng/ml Wnt3a (R&D Systems; Cat #1324-WN/CF) and then added to the assay wells. On the second and third day of assay, ACTN peptides were diluted into RPMI 1640 medium supplemented with 2% fatty acid free BSA and 8 ng/ml bFGF, without any Wnt3a and then added to the assay wells. A positive control sample included a commercial source of activin A (PeproTech; Cat #12 0-14) diluted in culture medium with growth factors as indicated. At the conclusion of three days culture, cells from some wells were harvested for analysis by flow cytometry to evaluate levels of CXCR4, a marker of definitive endoderm formation. […]

[3] = tested on: Human Embryonic Stem Cells (H1 hESC line); test: FACS analysis of CXCR4 at conclusion of first step of step-wise differentiation (Example 12); conditions: 100 ng/ml peptide, end of first step (three days), FIG. 23A, 23B
Description: as §1, §2, §3

[4] = supernatant concentration 1x, assay dilution 1:20
[5] = supernatant concentration 10x, assay dilution 1:20
[6] = supernatant concentration 10x, assay dilution 1:40

Molecule: activin A [reference compound]
- SOX17 expression ([1]; Wnt3a omitted from treatment on days 1 and 2): failed to produce measurable SOX17 expression
- Optimal activin A effects for induction of SOX17 expression (concentration range) ([1]; commercial activin A (Peprotech), 20 ng/ml Wnt3a on days 1 and 2, four days): 100 to 200 ng/mL
- EC50 for induction of SOX17 expression ([1]; commercial activin A (Peprotech), two-fold dilution curve, 20 ng/ml Wnt3a on days 1 and 2, four days): 0.03 to 0.05 µg/mL
- cell number and SOX17 expression (high content analysis) [2]: equivalent results
- CXCR4 expression (FACS) [3]: equivalent and robust CXCR4 expression

B1: ACTN22: activin A variant peptide, SEQ ID 23 (protein)
chain: GLECDGKVNLCCKKQDFVSFKDIGWNDWIIAPSGYHANRCDGLCPSHIAGTSGSSLSFHSTVINHYRMRGHSPFALMGACCIPTKLRPMSMLYYDDGQNIIKKDIQNMIVEECGCS
- Cell Number average [1, 4]: 9909
- Sox 17 Intensity average [1, 4]: 1.32E+05
- Sox 17 Intensity % of control [1, 4]: 0.4%
- Cell Number average [1, 5]: 8745
- Sox 17 Intensity average [1, 5]: 3.69E+05
- Sox 17 Intensity % of control [1, 5]: 1.3%
- Cell Number average [1, 6]: 9568
- Sox 17 Intensity average [1, 6]: 3.76E+05
- Sox 17 Intensity % of control [1, 6]: 1.3%

B2: ACTN23: activin A variant peptide, SEQ ID 24 (protein)
chain: GLECDGKVNYCCKKQDFVSFKDIGWNDWIIAPSGYHANKCDGKCPSHIAGTSGSSLSFHSTVINHYRMRGHSPFSDMGSCCIPTKLRPMSMLYYDDGQNIIKKDIQNMIVEECGCS
- Cell Number average [1, 4]: 6831
- Sox 17 Intensity average [1, 4]: 2.89E+04
- Sox 17 Intensity % of control [1, 4]: 0.1%
- Cell Number average [1, 5]: 10482
- Sox 17 Intensity average [1, 5]: 1.63E+05
- Sox 17 Intensity % of control [1, 5]: 0.6%
- Cell Number average [1, 6]: 8184
- Sox 17 Intensity average [1, 6]: 1.47E+05
- Sox 17 Intensity % of control [1, 6]: 0.5%

B3: ACTN28: activin A variant peptide, SEQ ID 29 (protein)
chain: GLECDGKVNYCCKKQLFVSFKDIGWNDWIIAPSGYHANHCSGKCPSHIAGTSGSSLSFHSTVINHYRMRGHSPFANMGSCCIPTKLRPMSMLYYDDGQNIIKKDIQNMIVEECGCS
- Cell Number average [1, 4]: 7411
- Sox 17 Intensity average [1, 4]: 3.70E+06
- Sox 17 Intensity % of control [1, 4]: 12.6%
- Cell Number average [1, 5]: 12587
- Sox 17 Intensity average [1, 5]: 4.87E+07
- Sox 17 Intensity % of control [1, 5]: 165.7%
- Cell Number average [1, 6]: 10116
- Sox 17 Intensity average [1, 6]: 3.57E+07
- Sox 17 Intensity % of control [1, 6]: 121.5%

B4: ACTN32: activin A variant peptide, SEQ ID 33 (protein)
chain: GLECDGKVNLCCKKQDFVSFKDIGWNDWIIAPSGYHANRCGGKCPSHIAGTSGSSLSFHSTVINHYRMRGHSPFSNMGSCCIPTKLRPMSMLYYDDGQNIIKKDIQNMIVEECGCS
- Cell Number average [1, 4]: 16166
- Sox 17 Intensity average [1, 4]: 9.11E+04
- Sox 17 Intensity % of control [1, 4]: 0.3%
- Cell Number average [1, 5]: 14330
- Sox 17 Intensity average [1, 5]: 3.97E+04
- Sox 17 Intensity % of control [1, 5]: 0.1%
- Cell Number average [1, 6]: 11619
- Sox 17 Intensity average [1, 6]: 3.43E+05
- Sox 17 Intensity % of control [1, 6]: 1.2%
